# Data taken from patent US20240109958A1 (Genentech, published 2024).
# Groups on a side chain read outwards from the residue. No end group written: not given here.
# T1: biotinylated K-ε-GG peptide (AAA{K-ε-GG}AAA) (also: biotinylated, position not given here)
# T1 construct: also called branched diglycine peptide
# T1 peptide: AAAK([Gly-Gly])AAA
# Biological target: T1, biotinylated K-ε-GG peptide …
# Test: ELISA, biotinylated peptide on neutravidin plates
# Description: Biotinylated peptides (GGM and K-ε-GG) were coated at 1 μg/mL in PBS on neutravidin ELISA plates (Thermo Scientific) in triplicate overnight at 4° C. Plates were washed with PBST prior to use. Serial dilutions of GGX mAbs or K-ε-GG mAb (Cell Signaling Technology) at 1 μg/mL were added for 1-2 hours at 25° C. Plates were washed and further developed as described above (see FIG. 1E).
row,binding result,Binder
1,no binding (tested: 1 µg/mL),"anti-GGX monoclonal antibody 2H2 (rabbit IgG) (antibody, V domains shown, also called anti-GGX antibody 2H2; anti-GGX 2H2 antibody) VH: QSVEESRGRLVTPGTPLTLTCKVSGFSLSSYYMNWVRQAPGKGLEWIGIMFPNGKIYYATWAKGRFTISKTSTTVDLKIISPTTEDTATYFCTGDDSGDVNIWGPGTLVTVSS VL: DPMLTQTASPVSAAVGGTVTINCQSSQSVYSNNRLAWYQQKPGQPPKEMIYGASTLPSGVSSRFKGSGSGTQFTLTISDVQCDDAATYYCLGTYDCLSADCLAFGGGTEVVVKG"
2,no binding (tested: 1 µg/mL),"anti-GGX monoclonal antibody 2B12 (rabbit IgG) (antibody, V domains shown, also called anti-GGX antibody 2B12) VH: QSVEESGGGLVTPGGALTLTCTASGFSLNRHWMNWVRQAPGKGLEWIGAINESGRTYYATWAKGRFFISKTTTTVDLKITSPTTADTATYFCVRDDDVSNFWGPGTLVTVSS VL: DPMLTQTPSSVSAAVGGTVSINCQSTKSVYKYNHLSWYQQKPGQPPKQLIFPASTLQSGVPSRFSGSGSGTQFTLTISDVQCDDAATYYCLGLYDCRSGDCNVFGGGTKLEIKG"

# The next lines start with the binder.
row,Binder,binding result
1,"anti-GGX monoclonal antibody 1C7 (rabbit IgG) (antibody, V domains shown, also called anti-GGX antibody 1C7; anti-GGX mAb) VH: QSVKESGGRLVTPGTPLTLTCKVSGFSLSSYYMNWVRQAPGKGLEWIGIMFPNGKIYYATWAKGRFTISKTSTTVDLKIISPTTEDTATYFCTGDDSGDVNIWGPGTLVTVSS VL: DIVLTQTASPVSAAVGGTVTINCQSSQSVYTNNRLAWYQQKPGQPAKEMIYGASTLPSGVSSRFKGSGSGTQFALTISDVQCDDAATYYCLGTYDCLSADCLAFGGGTKLEIKG",no binding (tested: 1 µg/mL)
2,"anti-GGX monoclonal antibody 2E9 (rabbit IgG) (antibody, V domains shown, also called anti-GGX antibody 2E9; anti-GGX 2E9 antibody) VH: QKQLMESGGRLVTPGTPLTLTCKVSGFSLSSYYMNWVRQAPGKGLEWIGIMFPNGKIYYATWAKGRFTISKTSTTVDLKIISPTTEDTATYFCTGDDSGDVNIWGPGTLVTVSS VL: DIVLTQTASPVSAAVGGTVTINCQSSQSVYTNNRLAWYQQKPGQPAKEMIYGASTLPSGVSSRFKGSGSGTQFALTISDVQCDDAATYYCLGEFDCTSADCFVFGGGTEVVVKG",no binding (tested: 1 µg/mL)
